# Publication PMC5988292, “Crystal structures of the PH domains from Lbc family of RhoGEFs bound to activated RhoA GTPase” (Data in Brief, 2018)
# Several values for one entry are separate records, joined by “and”; a condition that tells them apart may be missing. Equal entries are not always repeated.
# Target: T1, YFP-RhoA·GTPγS (UniProt P61586 1-193)
# T1 construct: RhoA; Loaded with GTPγS
# Assay: FRET or BRET; competition: non-fluorescent PH domain titrated into 1 μM YFP-RhoA·GTPγS + 1 μM CFP-PRG-PH; 20 mM NaHEPES pH 7.5, 1 mM EDTA, 1 mM DTT, 100 mM NaCl, 5 mM MgCl2; 25 °C; ratio 525/475 nm
# Conditions: both partners purified
row,Binder,IC50
1,"PH domain from mouse p114RhoGEF (residues 302-444) (domain or fragment, UniProt Q6P9R4-1 302-444, looked up, p114RhoGEF, mouse, PH domain, residues 302-444; The final model holds residues 299-444, three more at the N-terminus than the stated construct; also called p114-PH; p114RhoGEF-PH) YEKDQRLKEIAAKTDQKSSGKLKNGLTFRKEDMLQQRQLHLEGALCWKSTSGRLKDVLAVLLTDVLLLLQEKDQKYVFASVDSKPPVISLQKLIVREVANEEKAMFLISASMQGPEMYEMYTSSKEDRNIWMAHIRRAVESCP",> 60 µM and ~60 µM
2,"PH domain from human AKAP-LbcRhoGEF (residues 2195-2333) (domain or fragment, UniProt Q12802 2195-2333, looked up, AKAP-LbcRhoGEF, human, PH domain, residues 2195-2333; also called AKAP-Lbc-PH; AKAP-LbcRhoGEF-PH) YEKKVRLNEIYTKTDSKSIMRMKSGQMFAKEDLKRKKLVRDGSVFLKNAAGRLKEVQAVLLTDILVFLQEKDQKYIFASLDQKSTVISLKKLIVREVAHEEKGLFLISMGMTDPEMVEVHASSKEERNSWIQIIQDTIN",~20 µM
3,"p115-PH (PH domain of p115RhoGEF) (domain or fragment, UniProt Q92888 647-760, looked up, PH domain of p115 (Lbc-family RhoGEF)) KLVHEGPLTWRVTKDKAVEVHVLLLDDLLLLLQRQDERLLLKSHSRTLTPTPDGKTMLRPVLRLTSAMTREVATDHKAFYVLFTWDQEAQIYELVAQTVSERKNWCALITETAG",> 150 µM
4,"PRG-PH (non-fluorescent PH domain of PDZRhoGEF) (domain or fragment, UniProt O15085 924-1085, looked up, PH domain of PDZRhoGEF (PRG); also called PDZRhoGEF-PH) VKQTENRHRLEGYQKRLDATALERASNPLAAEFKSLDLTTRKMIHEGPLTWRISKDKTLDLHVLLLEDLLVLLQKQDEKLLLKCHSKTAVGSSDSKQTFSPVLKLNAVLIRSVATDKRAFFIICTSKLGPPQIYELVALTSSDKNTWMELLEEAVRNATRHP",3 µM
